Measured values from patent US20240084042A1 (Genentech, published 2024).
Numbering of substitutions follows the chain as printed. Names may count otherwise.

Assays:
human KLK7 [1] = molecular target: T1, human KLK7 (human, UniProt P49862 30-253); test: SPR BIAcore 8K, antibody on protein A chip, 37 C
T1 construct: Antigen injected in SPR; also called hu KLK7; huKLK7
Experimental: The binding affinity of the humanized antibodies was determined by BIAcore™ 8K SPR system. For kinetics measurements, antibodies were captured on research grade protein A chip (GE Healthcare) to achieve approximately 300 RU. Ten-fold serial dilutions of human KLK7 were injected in HBS-P buffer at 37° C. with a flow rate of 100 μL/min. Association rates (ka) and dissociation rates (kd) were calculated using a 1:1 Langmuir binding model (BIAcore Insight Evaluation Software version 2.0). The equilibrium dissociation constant (KD) was calculated as the ratio kd/ka.

[2] = molecular target: cyano KLK7 (SEQ ID NO: 6 plus a C-terminal FLAG tag) (cynomolgus monkey, UniProt P49862 30-253 (human entry)); test: cell-based or functional assay
cynomolgus monkey KLK5 [3] = molecular target: T2, cynomolgus monkey KLK5 (cynomolgus monkey, UniProt Q9Y337 67-293 (human entry)); test: cell-based or functional assay
T2 chain: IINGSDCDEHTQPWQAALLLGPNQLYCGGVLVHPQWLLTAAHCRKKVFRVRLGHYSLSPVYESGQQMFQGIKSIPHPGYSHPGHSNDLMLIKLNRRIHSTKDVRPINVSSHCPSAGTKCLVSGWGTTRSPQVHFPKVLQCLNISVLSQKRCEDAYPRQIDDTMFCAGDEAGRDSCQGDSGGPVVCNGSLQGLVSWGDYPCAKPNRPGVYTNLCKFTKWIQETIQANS

human KLK5 [4] = molecular target: T3, human KLK5 (human, UniProt Q9Y337 67-293); test: cell-based or functional assay
T3 sequence: T2 chain with E9M, G21R, G29A, I71V, H98R, S99P, R128K, E169K, K202R

[5] = molecular target: human KLK7 (SEQ ID NO: 4 plus a C-terminal FLAG tag) (human, UniProt P49862 30-253); test: cell-based or functional assay
cynomolgus monkey KLK5 [6] = molecular target: T2, cynomolgus monkey KLK5; test: SPR, one-armed monovalent antibody
human KLK5 [7] = molecular target: T3, human KLK5; test: SPR, one-armed monovalent antibody
cynomolgus monkey KLK7 = molecular target: T4, cynomolgus monkey KLK7 (cynomolgus monkey, UniProt P49862 30-253 (human entry)); test: kinetics of bispecific antibody, method not restated (SPR implied)
T4 construct: Antigen injected in SPR; also called Cy KLK7; cyno KLK7

human KLK7 [8] = molecular target: T1, human KLK7; test: as above
human KLK5 [9] = molecular target: T3, human KLK5; test: as above
cynomolgus monkey KLK5 [10] = molecular target: T2, cynomolgus monkey KLK5; test: as above

T1 sequence (P49862 30-253): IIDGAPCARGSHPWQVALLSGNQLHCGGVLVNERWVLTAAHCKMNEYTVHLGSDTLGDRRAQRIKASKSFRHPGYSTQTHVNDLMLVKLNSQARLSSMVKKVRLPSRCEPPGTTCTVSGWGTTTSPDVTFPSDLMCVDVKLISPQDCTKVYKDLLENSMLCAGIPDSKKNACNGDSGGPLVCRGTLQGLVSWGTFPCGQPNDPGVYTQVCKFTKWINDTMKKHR
Chain of human KLK7 (SEQ ID NO: 4 plus a C-terminal FLAG tag) (P49862 30-253): as above
T4 sequence (P49862 other isoform, or with tags, fused parts or gaps): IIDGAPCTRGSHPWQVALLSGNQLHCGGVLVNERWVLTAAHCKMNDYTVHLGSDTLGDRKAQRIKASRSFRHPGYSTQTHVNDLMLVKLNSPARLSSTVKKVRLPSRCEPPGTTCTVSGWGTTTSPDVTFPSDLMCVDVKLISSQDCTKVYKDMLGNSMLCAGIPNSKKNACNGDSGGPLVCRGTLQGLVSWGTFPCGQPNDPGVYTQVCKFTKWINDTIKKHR
Chain of cyano KLK7 (SEQ ID NO: 6 plus a C-terminal FLAG tag) (P49862 other isoform, or with tags, fused parts or gaps): as above

B1: chimeric rb.14H11c-hIgG1 (antibody, V domains shown)
VH: QSLEESGGDLVKPGASLTLTCTASGFSFSSSYYMSWVRQAPGKGLEWIASIYAGSSGAPYYAGWAKGRFTISKTSSTAVTLQMSSLTAADTATYFCAREGFAETGGYGYAAYFNLWGPGTLVTVSS
VL: AIEMTQSPPSLSASVGETVRIRCLASEDIASSVSWYQQKPGKPPTLLIYGASNLESGVPPRFTGSGSGTDYTLTIGGVQAEDAATYYCLGGYSYSSTGTAFGAGTKVEIK
notes: Rabbit variable domains (14H11 with C35a to S in VH) on human IgG1; also called Chimeric 14H11c
- Kd (human KLK7 [1]): < 1 pM
- koff (human KLK7 [1]): < 1e-06 s⁻¹
- kon (human KLK7 [1]): 2.16e+07 M⁻¹ s⁻¹

B2: hu10C5VY (antibody, V domains shown)
VH: EVQLVESGGGLVQPGGSLRLSCAASGFSLSSYGVTWVRQAPGKGLEWIGYITSVYGVSYYASWAKSRSTISRDTSKNTVYLQMGSLRAEDMAVYYCARENPDYGYAYDAWGQGTTVTVSS
VL: AIRMTQSPSSFSASTGDRVTITCQASESISNELSWYQQKPGKAPKLLIYYASTLASGVPSRFSGSGSGTDFTLTISSLQPEDFATYYCAQGYGSSGVENVFGGGTKVEIK
- IC50, KLK7 direct functional assay (Mca-RPKPVE-Nval-WRK(Dnp)), bivalency corrected [2]: > 10000 pM
- IC50, KLK5 direct functional assay (Boc-Val-Pro-Arg-AMC), bivalency corrected (cynomolgus monkey KLK5 [3]): 560 pM
- IC50, KLK5 direct functional assay (Boc-Val-Pro-Arg-AMC), bivalency corrected (human KLK5 [4]): 460 pM
- IC50, KLK7 direct functional assay (Mca-RPKPVE-Nval-WRK(Dnp)), bivalency corrected [5]: > 10000 pM

B3: OA.hu.10C5.N53V.S34K.F92Y.S95F (antibody, V domains shown)
VH: B2 VH with Q39K
VL: B2 VL with S34K, Q38E, S95F
notes: One-armed (OA) monovalent anti-KLK5 antibody with a human IgG1 Fc, with Q38E/Q39K; constant regions and dummy Fc chain not specified
- Kd (cynomolgus monkey KLK5 [6]): 2.65 pM
- koff (cynomolgus monkey KLK5 [6]): 2.81e-05 s⁻¹
- kon (cynomolgus monkey KLK5 [6]): 1.06e+07 M⁻¹ s⁻¹
- Kd (human KLK5 [7]): 0.367 pM
- koff (human KLK5 [7]): 1.88e-06 s⁻¹
- kon (human KLK5 [7]): 5.13e+06 M⁻¹ s⁻¹

B4: OA.hu.10C5.N53V.S95F (antibody, V domains shown)
VH: B2 VH with Q39K
VL: B2 VL with Q38E, Y92F, S95F
notes: as for B3
- Kd (cynomolgus monkey KLK5 [6]): 7.44 pM
- koff (cynomolgus monkey KLK5 [6]): 0.0001 s⁻¹
- kon (cynomolgus monkey KLK5 [6]): 1.35e+07 M⁻¹ s⁻¹
- Kd (human KLK5 [7]): 2.59 pM
- koff (human KLK5 [7]): 1.51e-05 s⁻¹
- kon (human KLK5 [7]): 5.82e+06 M⁻¹ s⁻¹

B5: OA.hu.10C5.N53V.S34K.S95F (antibody, V domains shown)
VH: B2 VH with Q39K
VL: B2 VL with S34K, Q38E, Y92F, S95F
notes: as for B3
- Kd (cynomolgus monkey KLK5 [6]): 3.03 pM
- koff (cynomolgus monkey KLK5 [6]): 2.86e-05 s⁻¹
- kon (cynomolgus monkey KLK5 [6]): 9.41e+06 M⁻¹ s⁻¹
- Kd (human KLK5 [7]): < 0.235 pM
- koff (human KLK5 [7]): < 1e-06 s⁻¹
- kon (human KLK5 [7]): 4.25e+06 M⁻¹ s⁻¹

B6: OA.hu.10C5.N53V.S34K.F92Y (antibody, V domains shown)
VH: B2 VH with Q39K
VL: B2 VL with S34K, Q38E
notes: as for B3
- Kd (cynomolgus monkey KLK5 [6]): 5.22 pM
- koff (cynomolgus monkey KLK5 [6]): 3.08e-05 s⁻¹
- kon (cynomolgus monkey KLK5 [6]): 5.9e+06 M⁻¹ s⁻¹
- Kd (human KLK5 [7]): < 0.334 pM
- koff (human KLK5 [7]): < 1e-06 s⁻¹
- kon (human KLK5 [7]): 3e+06 M⁻¹ s⁻¹

B7: hu.14H11c.L2H11-hIgG1 (antibody, V domains shown)
VH: EQQLVESGGGLIQPGGSLRLSCAASGFSFSSSYYMSWVRQAPGKGLEWVSSIYAGSSGAPYYAGWAKGRFTISRDNSKNTLYLQMNSLRAEDTAVYYCAREGFAETGGYGYAAYFNLWGPGTLVTVSS
VL: DIQMTQSPSSLSASVGDRVTITCLASEDIASSVSWYQQKPGKAPKLLIYGASNLESGVPSRFSGSGSGTDYTLTISSLQPEDFATYYCLGGYSYSSTGTAFGGGTKVEIK
notes: Humanized anti-KLK7 antibody, human IgG1
- Kd (human KLK7 [1]): 0.356 pM
- koff (human KLK7 [1]): 1.22e-05 s⁻¹
- kon (human KLK7 [1]): 3.43e+07 M⁻¹ s⁻¹
- IC50, KLK7 direct functional assay (Mca-RPKPVE-Nval-WRK(Dnp)), bivalency corrected [2]: 290 pM
- IC50, KLK5 direct functional assay (Boc-Val-Pro-Arg-AMC), bivalency corrected (cynomolgus monkey KLK5 [3]): > 10000 pM
- IC50, KLK5 direct functional assay (Boc-Val-Pro-Arg-AMC), bivalency corrected (human KLK5 [4]): > 10000 pM
- IC50, KLK7 direct functional assay (Mca-RPKPVE-Nval-WRK(Dnp)), bivalency corrected [5]: 290 pM

B8: One-armed hu.14H11c.L2H11-hIgG1 knob-in-hole (antibody)
heavy: not shown
VL: B7 VL with Q38K
chain: DKTHTCPPCPAPELLGGPSVFLFPPKPKDTLMISRTPEVTCVVVDVSHEDPEVKFNWYVDGVEVHNAKTKPREEQYGSTYRVVSVLTVLHQDWLNGKEYKCKVSNKALPAPIEKTISKAKGQPREPQVYTLPPSREEMTKNQVSLSCAVKGFYPSDIAVEWESNGQPENNYKTTPPVLDSDGSFFLVSKLTVDKSRWQQGNVFSCSVMHEALHNHYTQKSLSLSPGK
notes: Monovalent one-armed format
- Kd (human KLK7 [1]): 0.894 pM
- koff (human KLK7 [1]): 2.52e-05 s⁻¹
- kon (human KLK7 [1]): 2.82e+07 M⁻¹ s⁻¹

B9: hu.10C5VY.hu14H11c.L2H11 WT (bispecific antibody, human IgG1, kappa, N297G)
heavy 1: not shown
light 1: DIQMTQSPSSLSASVGDRVTITCLASEDIASSVSWYQKKPGKAPKLLIYGASNLESGVPSRFSGSGSGTDYTLTISSLQPEDFATYYCLGGYSYSSTGTAFGGGTKVEIKRTVAAPSVFIFPPSDEQLKSGTASVECLLNNFYPREAKVQWKVDNALQSGNSQESVTEQDSKDSTYSLSSTLTLSKADYEKHKVYACEVTHQGLSSPVTKSFNRGEC
heavy 2: EVQLVESGGGLVQPGGSLRLSCAASGFSLSSYGVTWVRKAPGKGLEWIGYITSVYGVSYYASWAKSRSTISRDTSKNTVYLQMGSLRAEDMAVYYCARENPDYGYAYDAWGQGTTVTVSSASTKGPSVFPLAPSSKSTSGGTAALGCLVKDYFPEPVTVSWNSGALTSGVHTFPAVLQSSGLYSLESVVTVPSSSLGTQTYICNVNHKPSNTKVDKKVEPKSCDKTHTCPPCPAPELLGGPSVFLFPPKPKDTLMISRTPEVTCVVVDVSHEDPEVKFNWYVDGVEVHNAKTKPREEQYGSTYRVVSVLTVLHQDWLNGKEYKCKVSNKALPAPIEKTISKAKGQPREPQVYTLPPSREEMTKNQVSLSCAVKGFYPSDIAVEWESNGQPENNYKTTPPVLDSDGSFFLVSKLTVDKSRWQQGNVFSCSVMHEALHNHYTQKSLSLSPGK
light 2: AIRMTQSPSSFSASTGDRVTITCQASESISNELSWYQEKPGKAPKLLIYYASTLASGVPSRFSGSGSGTDFTLTISSLQPEDFATYYCAQGYGSSGVENVFGGGTKVEIKRTVAAPSVFIFPPSDEQLKSGTASVKCLLNNFYPREAKVQWKVDNALQSGNSQESVTEQDSKDSTYSLSSTLTLSKADYEKHKVYACEVTHQGLSSPVTKSFNRGEC
notes: hIgG1 N297G knob-in-hole bispecific with Q39E/Q38K, Q39K/Q38E, S183K/V133E and S183E/V133K pairing mutations; also called anti-KLK5/KLK7 bispecific antibody without M428L/N434S
- IC50, KLK7 direct functional assay (Mca-RPKPVE-Nval-WRK(Dnp)), bivalency corrected [2]: 370 pM
- IC50, KLK5 direct functional assay (Boc-Val-Pro-Arg-AMC), bivalency corrected (cynomolgus monkey KLK5 [3]): 730 pM
- Kd (cynomolgus monkey KLK7): 2.3 pM
- koff (cynomolgus monkey KLK7): 9e-05 s⁻¹
- kon (cynomolgus monkey KLK7): 4e+07 M⁻¹ s⁻¹
- Kd (human KLK7 [8]): < 1 pM
- koff (human KLK7 [8]): < 1e-06 s⁻¹
- kon (human KLK7 [8]): 5.8e+07 M⁻¹ s⁻¹
- Kd (human KLK5 [9]): 0.8 pM
- koff (human KLK5 [9]): 1.5e-05 s⁻¹
- kon (human KLK5 [9]): 2.1e+07 M⁻¹ s⁻¹
- Kd (cynomolgus monkey KLK5 [10]): 19 pM
- koff (cynomolgus monkey KLK5 [10]): 0.00019 s⁻¹
- kon (cynomolgus monkey KLK5 [10]): 1e+07 M⁻¹ s⁻¹
- IC50, KLK5 direct functional assay (Boc-Val-Pro-Arg-AMC), bivalency corrected (human KLK5 [4]): 670 pM
- IC50, KLK7 direct functional assay (Mca-RPKPVE-Nval-WRK(Dnp)), bivalency corrected [5]: 370 pM
